Molecular target: N-terminally MBP-fused and C-terminally mCherry-fused C-terminal intracellular region of Lrp5 (zebrafish)
Test: bead binding assay read by EGFP fluorescence microscopy

EGFP signal on beads: 5.3
Substance: N-terminally GST-fused and C-terminally EGFP-fused RBP1a (natural protein)

From article PMC7683268
